Earlier results as cited in PMC12590814.
Like-named read-outs stand apart in the source and are kept apart here.

Assays:
[1] = target: calmodulin (Homo sapiens) (UniProt P0DP23)
[2] = target: calmodulin (Homo sapiens) (UniProt P0DP23); remark: listed apart in the source

Kd [1]	Kd [2]	Substance
7.5 nM		PMCA2 (from UniProt Q01814)
	7.5 nM	PMCA3 (from UniProt Q16720)
